# Test results reported in US20150344570A1 (published 2015).
# B1: GpH7-A5/GpH7-B3 variant S324_15Y/GpL16-k0 (antibody, human IgG1, kappa)
# heavy 1: not shown
# heavy 2: not shown
# light: DIVMTQSPLSLPVTPGEPASISCQASESLVHSNRNTYLHWYLQKPGQSPQLLIYKVSNRFSGVPDRFSGSGSGTDFTLKISRVEAEDVGVYYCSQNTHVPPTFGQGTKVEIERTVAAPSVFIFPPSDEQLKSGTASVVCLLNNFYPREAKVQWKVDNALQSGNSQESVTEQDSKDSTYSLSSTLTLSKADYEKHKVYACEVTHQGLSSPVTKSFNRGEC
# notes: also called He Ab S324_15Y
# B2: GpH7-A5/GpH7-B3 variant T335_11K/GpL16-k0 (antibody, human IgG1, kappa)
# heavy 1: not shown
# heavy 2: not shown
# light: B1 light
# notes: also called He Ab T335_11K
# B3: GpH7-A5/GpH7-B3 variant T335_09D/GpL16-k0 (antibody, human IgG1, kappa)
# heavy 1: not shown
# heavy 2: not shown
# light: B1 light
# notes: also called He Ab T335_09D
# B4: GpH7-A5/GpH7-B3 variant S324_14T/GpL16-k0 (antibody, human IgG1, kappa)
# heavy 1: not shown
# heavy 2: not shown
# light: B1 light
# notes: also called He Ab S324_14T
# B5: GpH7-A5/GpH7-B3 variant S298_12R/GpL16-k0 (antibody, human IgG1, kappa)
# heavy 1: not shown
# heavy 2: not shown
# light: B1 light
# notes: also called He Ab S298_12R
# B6: GpH7-A5/GpH7-B3 variant S298_08L/GpL16-k0 (antibody, human IgG1, kappa)
# heavy 1: not shown
# heavy 2: not shown
# light: B1 light
# notes: also called He Ab S298_08L
# B7: GpH7-A5/GpH7-B3 variant S337_06M/GpL16-k0 (antibody, human IgG1, kappa)
# heavy 1: not shown
# heavy 2: not shown
# light: B1 light
# notes: also called He Ab S337_06M
# B8: GpH7-A5/GpH7-B3 variant Y300_12R/GpL16-k0 (antibody, human IgG1, kappa)
# heavy 1: not shown
# heavy 2: not shown
# light: B1 light
# notes: also called He Ab Y300_12R
# B9: GpH7-A5/GpH7-B3 variant S337_10E/GpL16-k0 (antibody, human IgG1, kappa)
# heavy 1: not shown
# heavy 2: not shown
# light: B1 light
# notes: also called He Ab S337_10E
# B10: GpH7-A5/GpH7-B3 variant S298_16H/GpL16-k0 (antibody, human IgG1, kappa)
# heavy 1: not shown
# heavy 2: not shown
# light: B1 light
# notes: also called He Ab S298_16H
# B11: GpH7-A5/GpH7-B3 variant S337_02A/GpL16-k0 (antibody, human IgG1, kappa)
# heavy 1: not shown
# heavy 2: not shown
# light: B1 light
# notes: also called He Ab S337_02A
# B12: GpH7-A5/GpH7-B3 variant T335_15Y/GpL16-k0 (antibody, human IgG1, kappa)
# heavy 1: not shown
# heavy 2: not shown
# light: B1 light
# notes: also called He Ab T335_15Y
# B13: GpH7-A5/GpH7-B3 variant S324_18N/GpL16-k0 (antibody, human IgG1, kappa)
# heavy 1: not shown
# heavy 2: not shown
# light: B1 light
# notes: also called He Ab S324_18N
# B14: GpH7-A5/GpH7-B3 variant T335_07I/GpL16-k0 (antibody, human IgG1, kappa)
# heavy 1: not shown
# heavy 2: not shown
# light: B1 light
# notes: also called He Ab T335_07I
# B15: GpH7-A5/GpH7-B3 variant S324_12R/GpL16-k0 (antibody, human IgG1, kappa)
# heavy 1: not shown
# heavy 2: not shown
# light: B1 light
# notes: also called He Ab S324_12R
# B16: GpH7-A5/GpH7-B3 variant S337_03V/GpL16-k0 (antibody, human IgG1, kappa)
# heavy 1: not shown
# heavy 2: not shown
# light: B1 light
# notes: also called He Ab S337_03V
# B17: GpH7-A5/GpH7-B3 variant S337_08L/GpL16-k0 (antibody, human IgG1, kappa)
# heavy 1: not shown
# heavy 2: not shown
# light: B1 light
# notes: also called He Ab S337_08L
# B18: GpH7-A5/GpH7-B3 variant S298_14T/GpL16-k0 (antibody, human IgG1, kappa)
# heavy 1: not shown
# heavy 2: not shown
# light: B1 light
# notes: also called He Ab S298_14T
# B19: GpH7-A5/GpH7-B3 variant S337_01G/GpL16-k0 (antibody, human IgG1, kappa)
# heavy 1: not shown
# heavy 2: not shown
# light: B1 light
# notes: also called He Ab S337_01G
# B20: GpH7-A5/GpH7-B3 variant T335_12R/GpL16-k0 (antibody, human IgG1, kappa)
# heavy 1: not shown
# heavy 2: not shown
# light: B1 light
# notes: also called He Ab T335_12R
# B21: GpH7-A5/GpH7-B3 variant T335_10E/GpL16-k0 (antibody, human IgG1, kappa)
# heavy 1: not shown
# heavy 2: not shown
# light: B1 light
# notes: also called He Ab T335_10E
# B22: GpH7-A5/GpH7-B3 variant S337_19Q/GpL16-k0 (antibody, human IgG1, kappa)
# heavy 1: not shown
# heavy 2: not shown
# light: B1 light
# notes: also called He Ab S337_19Q
# B23: GpH7-A5/GpH7-B3 variant S324_20W/GpL16-k0 (antibody, human IgG1, kappa)
# heavy 1: not shown
# heavy 2: not shown
# light: B1 light
# notes: also called He Ab S324_20W
# B24: GpH7-A5/GpH7-B3 variant S324_03V/GpL16-k0 (antibody, human IgG1, kappa)
# heavy 1: not shown
# heavy 2: not shown
# light: B1 light
# notes: also called He Ab S324_03V
# B25: GpH7-A5/GpH7-B3 variant T335_04F/GpL16-k0 (antibody, human IgG1, kappa)
# heavy 1: not shown
# heavy 2: not shown
# light: B1 light
# notes: also called He Ab T335_04F
# B26: GpH7-A5/GpH7-B3 variant S298_18N/GpL16-k0 (antibody, human IgG1, kappa)
# heavy 1: not shown
# heavy 2: not shown
# light: B1 light
# notes: also called He Ab S298_18N
# Target: T1, FcγRIa (human, UniProt P12314 16-292)
# T1 construct: extracellular domain; Soluble extracellular domain expressed in FreeStyle293 cells, used as analyte in Biacore; also called FcgRI; 1a; not shown: His tag attached to the C terminus
# T1 sequence (P12314 16-292): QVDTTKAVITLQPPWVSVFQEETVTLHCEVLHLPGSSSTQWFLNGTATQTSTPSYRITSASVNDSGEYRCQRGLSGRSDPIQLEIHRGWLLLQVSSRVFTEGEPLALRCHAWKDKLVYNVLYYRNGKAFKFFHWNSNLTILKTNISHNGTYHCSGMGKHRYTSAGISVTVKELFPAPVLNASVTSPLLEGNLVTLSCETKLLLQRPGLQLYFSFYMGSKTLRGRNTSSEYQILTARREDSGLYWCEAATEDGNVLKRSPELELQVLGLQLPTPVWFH
# Assay: SPR (Biacore); He Ab vs HeCon Ab GpH7-A5/GpH7-B3/GpL16-k0
# Method: Analysis of interaction between objective antibody and the FcγR was carried out using Biacore T100 (GE Healthcare). HBS-EP+ (GE Healthcare) was used as the running buffer, and the measurement temperature was set to 25° C. Chips produced by immobilizing the antigen peptide by the amine coupling method to a Series S Sencor Chip CM5 (GE Healthcare), or alternatively, chips produced by allowing preliminarily biotinylated antigen peptides to interact with and immobilize onto a Series S Sensor Chip SA (certified) (GE Healthcare) were used. Antibodies of interest were captured onto an antigen peptide-immobilized chip, and allowed to interact to each FcγR diluted with running buffer. To regenerate and repeatedly use the chip, the antibodies captured on the chip were washed off by reacting 10 mM glycine-HCl, pH 1.5.
row,He/Con_1a,Binder
1,"114 relative binding, control = 100",B1
2,"111 relative binding, control = 100",B2
3,"108 relative binding, control = 100",B3
4,"121 relative binding, control = 100",B4
5,"109 relative binding, control = 100",B5
6,"107 relative binding, control = 100",B6
7,"107 relative binding, control = 100",B7
8,"105 relative binding, control = 100",B8
9,"106 relative binding, control = 100",B9
10,"109 relative binding, control = 100",B10
11,"106 relative binding, control = 100",B11
12,"107 relative binding, control = 100",B12
13,"116 relative binding, control = 100",B13
14,"109 relative binding, control = 100",B14
15,"102 relative binding, control = 100",B15
16,"107 relative binding, control = 100",B16
17,"105 relative binding, control = 100",B17
18,"107 relative binding, control = 100",B18
19,"107 relative binding, control = 100",B19
20,"113 relative binding, control = 100",B20
21,"109 relative binding, control = 100",B21
22,"105 relative binding, control = 100",B22
23,"114 relative binding, control = 100",B23
24,"104 relative binding, control = 100",B24
25,"105 relative binding, control = 100",B25
26,"108 relative binding, control = 100",B26
